Measurements from patent US20030165511A1.

Target: bacteriophage P2 of Lactococcus lactis
Assay: cell-based or functional assay

B1: VHH#1 (VHH)
VHH: QVQLQESGGGLVQAGGSLRLSCTASRRTGSNWCMGWFRQLAGKEPELVVALNFDYDMTYYADSVKGRFTVSRDSGKNTVYLQMNSLKPEDTAIYYCAARSGGFSSNRELYDGWGQGTQVTVSS
neutralisation in microtiter acidification assay (lowest effective concentration): 47 ng/mL
reduction in the phage titre (plaque titration on L. lactis LM0230): > 99%
